Measurements taken from PMC8967867 (2022).

T1: CID1R^ML, maximum likelihood reconstructed CBP-interacting domain (CID) of the NCOA family from an early …
T1 chain: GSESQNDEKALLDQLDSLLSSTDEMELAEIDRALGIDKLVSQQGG


How the values were obtained:
[1] = target: CID1R^AltAll, alternative reconstructed CID of the early vertebrate ancestor (1R) with the second most likely …; assay: ITC
[2] = target: T1, CID1R^ML, maximum likelihood …; assay: ITC

Kd [1] [µM]	Kd [2] [µM]	Binder
2.2		GSTPPQALQQLLQTLKSPSSPQQQQQVLQILKSNPQLMAAFIKQRSQHQQ (domain or fragment)
	9.7	IMPPALQQLLQTLKSPNSPQQQQQVLHILKSNPQLMAAFIKQRSQQQQ (domain or fragment)
